B1: MBP–Nab2p NLS [S. cerevisiae] / Kap104p [yeast (S. cerevisiae)] (parent complex)
chain 1: DNSQRFTQRGGGAVGKNRRGGRGGNRGGRNNNSTRFNPLAKALGMAGESNM
chain 2: MASTWKPAEDYVLQLATLLQNCMSPNPEIRNNAMEAMENFQLQPEFLNYLCYILIEGESDDVLKQHYSLQDLQNNRATAGMLLKNSMLGGNNLIKSNSHDLGYVKSNIIHGLYNSNNNLVSNVTGIVITTLFSTYYRQHRDDPTGLQMLYQLLELTSNGNEPSIKALSKIMEDSAQFFQLEWSGNTKPMEALLDSFFRFISNPNFSPVIRSESVKCINTVIPLQTQSFIVRLDKFLEIIFQLAQNDENDLVRAQICISFSFLLEFRPDKLVSHLDGIVQFMLHLITTVNEEKVAIEACEFLHAFATSPNIPEHILQPYVKDIVPILLSKMVYNEESIVLLEASNDDDAFLEDKDEDIKPIAPRIVKKKEAGNGEDADDNEDDDDDDDDEDGDVDTQWNLRKCSAATLDVMTNILPHQVMDIAFPFLREHLGSDRWFIREATILALGAMAEGGMKYFNDGLPALIPFLVEQLNDKWAPVRKMTCWTLSRFSPWILQDHTEFLIPVLEPIINTLMDKKKDVQEAAISSVAVFIENADSELVETLFYSQLLTSFDKCLKYYKKKNLIILYDAIGRFAEKCALDETAMQIILPPLIEKWALLSDSDKELWPLLECLSCVASSLGERFMPMAPEVYNRAFRILCHCVELEAKSHQDPTIVVPEKDFIITSLDLIDGLVQGLGAHSQDLLFPQGTKDLTILKIMLECLQDPVHEVRQSCFALLGDIVYFFNSELVIGNLEDFLKLIGTEIMHNDDSDGTPAVINAIWALGLISERIDLNTYIIDMSRIILDLFTTNTQIVDSSVMENLSVTIGKMGLTHPEVFSSGAFANDSNWNKWCLSVNALDDVEEKSSAYMGFLKIINLTSTEVTMSNDTIHKIVTGLSSNVEANVFAQEIYTFLMNHSAQISAINFTPDEISFLQQFTS
B2: MBP–Hrp1p NLS [S. cerevisiae] / Kap104p [yeast (S. cerevisiae)] (parent complex)
chain 1: RDRNDRDRDYNHRSGGNHRRNGRGGRGGYNRRNNGYHPYNR
chain 2: B1 chain 2

Variants of: B1
Assay: ITC; parent: 37 nM

Which Kd does the source give for chain 1 F36A here?
Its Kd is 296 nM.

Which Kd does the source give for chain 1 F36L here?
The Kd was 66 nM.

For chain 1 R35H, which Kd is on record?
The Kd was 63 nM.

With chain 1 R18K, chain 1 R19K, chain 1 R22K, chain 1 R26K, chain 1 R29K as the variant, how does the Kd read?
The Kd was 21 nM.

Variants of: B2
Assay: ITC; parent: -10.1

Which dG does the source give for chain 1 Y36L here?
The dG was -10 kcal/mol.

How did the dG turn out when chain 1 R32A was run?
The dG was -10.5 kcal/mol.

For chain 1 R19A, chain 1 Y36A, which dG is on record?
Its dG is -9.7 kcal/mol.

With chain 1 R31A as the variant, how does the dG read?
Its dG is -10 kcal/mol.

With chain 1 R19K, chain 1 R20K, chain 1 R23K, chain 1 R26K as the variant, how does the dG read?
The dG was -10 kcal/mol.

— publication PMC2408616, “Modular Organization and Combinatorial Energetics of Proline–Tyrosine Nuclear Localization Signals” (PLoS Biology, 2008)
